Source: the supplement of paper PMC10126150
± gives the standard deviation of the averaged measurements.

Tested on: ATP
Assay: switch fluorescence ratio, 500 uM ATP over buffer (Cy3 cluster intensity, sum of 5 cycles each) (fold (ratio)); higher = stronger signal-on switching upon ATP binding; sequences stand for … in TCGTCGGCAGCGTCAGATGTGTATAAGAGACAGTTTTTTTTTTTTTTTTTTTTTTTTT…TC
Conditions: aptamer strand: ATP DNA aptamer (quencher-CACCTGGGGGAGTATTGCGGAGGAAGG + anchor), 100 nM annealed; ATP concentration: 500 uM
Outline: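 Imaging in selection buffer was followed by imaging after 15 min with 500 uM ATP at 22 °C, for Cy3-labelled switching-strand clusters annealed to 100 nM quencher-labelled ATP aptamer on a modified Illumina MiSeq flow-cell. Five of these buffer/ATP cycles ran, separated by NaOH stripping and re-annealing. The fluorescence ratio per cluster is summed target-cycle over summed buffer-cycle Cy3 intensity, averaged per switch-domain sequence; clusters outside 100-1000 RFU were removed.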
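Further: ATP exposure 15 min at 22 °C before imaging.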

Sequence	switch fluorescence ratio
TACTTAGGTG	1.17 ± 0.12
TACTTATATG	1.03 ± 0.016
TACTTATTGT	0.9755 ± 0.0083
TACTTGTGTG	0.988 ± 0.011
TACTTGTTTC	1.01 ± 0.027
TACTTTAATT	1.04 ± 0.014
TACTTTAGGG	1.04 ± 0.024
TACTTTGCGG	1.01 ± 0.063
TACTTTGGGC	1.03 ± 0.065
TACTTTTATA	1.03 ± 0.017
TAGAAAAGCA	0.997 ± 0.024
TAGAAAAGGG	1.03 ± 0.031
TAGAAAAGGT	0.974 ± 0.028
TAGAAAATAA	0.995 ± 0.021
TAGAAACCTT	1.81 ± 1.1
TAGAAAGGGC	1.01 ± 0.08
TAGAAATTAT	1.19 ± 0.38
TAGAACGGGG	0.9978 ± 0.0022
TAGAAGGGCA	0.988 ± 0.015
TAGAAGGGGG	0.965 ± 0.016
TAGAAGTTTG	0.976 ± 0.026
TAGAATATAT	1.78 ± 1
TAGAATTAGG	0.987 ± 0.037
TAGAATTTGG	1.01 ± 0.06
TAGACACAGC	1.02 ± 0.12
TAGACCATGT	1.02 ± 0.034

Sequence	switch fluorescence ratio
TAGACGTCGT	0.965 ± 0.024
TAGACTTATG	1.04 ± 0.02
TAGAGAAATA	1.01 ± 0.064
TAGAGAATGG	0.994 ± 0.0086
TAGAGACTGA	1.023 ± 0.0022
TAGAGCACGG	1.02 ± 0.012
TAGAGCAGCT	1.03 ± 0.021
TAGAGGAAGG	0.979 ± 0.021
TAGAGGAGGC	0.996 ± 0.017
TAGAGGGCTG	1.01 ± 0.016
TAGAGGGGAT	0.985 ± 0.027
TAGAGGGGGA	0.987 ± 0.018
TAGAGGGTTG	0.969 ± 0.02
TAGAGGGTTT	1.02 ± 0.045
TAGAGGTTGG	0.981 ± 0.042
TAGAGTAACA	1 ± 0.035
TAGAGTCTTT	0.994 ± 0.013
TAGAGTTATT	1.01 ± 0.014
TAGAGTTGTT	0.984 ± 0.03
TAGATAGAGT	0.994 ± 0.024
TAGATATTTT	0.986 ± 0.032
TAGATCAAG	1.04 ± 0.028
TAGATTCGCT	0.993 ± 0.039
TAGATTCGTT	0.9907 ± 0.0071
TAGATTGAAA	0.986 ± 0.028
TAGATTGGGT	0.976 ± 0.033

Sequence	switch fluorescence ratio
TAGCAAGTGG	0.998 ± 0.043
TAGCAATGAA	1.53 ± 0.057
TAGCACGGAT	1.02 ± 0.038
TAGCAGATCA	0.994 ± 0.024
TAGCAGGGGG	1.03 ± 0.011
TAGCAGGTTA	1 ± 0.016
TAGCATGTGG	1.0006 ± 0.0008
TAGCCTTTGG	0.978 ± 0.034
TAGCCTTTTT	0.955 ± 0.015
TAGCGAGGGG	0.98529 ± 0.00026
TAGCGATTGT	1.02 ± 0.062
TAGCGCCCCG	0.987 ± 0.016
TAGCGGGCGT	0.964 ± 0.026
TAGCGGGGGG	1.02 ± 0.046
TAGCGGGTTG	1.03 ± 0.036
TAGCGTCTGT	0.983 ± 0.02
TAGCGTTTGG	1.01 ± 0.045
TAGCTAGTCG	1.01 ± 0.039
TAGCTCCGTA	1.09 ± 0.036
TAGCTGTTCG	0.9887 ± 0.004
TAGCTTCTGC	0.907 ± 0.063
TAGCTTTTAT	0.996 ± 0.032
TAGGAAAAAA	1.03 ± 0.033
TAGGAAAGAA	1.03 ± 0.028
TAGGAAATTA	1 ± 0.015
TAGGAAGGTT	0.9879 ± 0.0036

Sequence	switch fluorescence ratio
TAGGAATACG	1.24 ± 0.036
TAGGACGGGT	0.9932 ± 0.0054
TAGGAGCGTG	1.02 ± 0.044
TAGGAGGGGA	1.01 ± 0.029
TAGGAGTAAG	1.01 ± 0.03
TAGGATAGAC	1 ± 0.017
TAGGATAGGG	0.9972 ± 0.0021
TAGGATATTT	1 ± 0.02
TAGGATGTA	0.9643 ± 0.0014
TAGGATTGG	0.971 ± 0.015
TAGGATTGTG	0.9991 ± 0.0081
TAGGCAATCT	1.25 ± 0.092
TAGGCAGCGG	0.991 ± 0.023
TAGGCCAGTA	1.024 ± 0.0091
TAGGCCCCTG	0.985 ± 0.041
TAGGCCTAAT	0.9715 ± 0.003
TAGGCGGCGA	1 ± 0.022
TAGGCGGGGA	1.07 ± 0.059
TAGGCGTCTG	1 ± 0.012
TAGGCTGAAA	0.9906 ± 0.0024
TAGGCTGTTA	0.995 ± 0.036
TAGGCTTATG	0.9786 ± 0.0037
TAGGCTTTTG	1.03 ± 0.056
TAGGGAAAAT	0.9833 ± 0.0029
TAGGGAAACT	1.21 ± 0.26
TAGGGAACGT	1.04 ± 0.04

Sequence	switch fluorescence ratio
TAGGGAAGAG	0.996 ± 0.041
TAGGGAATGA	1 ± 0.016
TAGGGAATTA	1.01 ± 0.012
TAGGGACGCA	1.16 ± 0.018
TAGGGACTCT	0.995 ± 0.014
TAGGGAGATG	0.996 ± 0.056
TAGGGAGGGT	1.11 ± 0.2
TAGGGATTGG	1.01 ± 0.039
TAGGGCGCCA	0.995 ± 0.057
TAGGGGAAAA	1.02 ± 0.019
TAGGGGAATA	1.01 ± 0.044
TAGGGGAGAA	1.01 ± 0.014
TAGGGGCTTT	1.04 ± 0.062
TAGGGGGCCA	1.014 ± 0.004
TAGGGGGGAT	0.992 ± 0.035
TAGGGGGGT	0.9765 ± 0.0032
TAGGGGGTCA	1 ± 0.022
TAGGGGGTT	1.01 ± 0.026
TAGGGGTCCA	0.987 ± 0.018
TAGGGGTCTG	1.032 ± 0.0059
TAGGGGTGCC	0.98 ± 0.034
TAGGGGTGCG	1 ± 0.038
TAGGGGTGGT	0.984 ± 0.032
TAGGGTATGG	0.9792 ± 0.0083
TAGGGTGGGG	0.99 ± 0.072
TAGGGTTCGC	1.06 ± 0.082

Sequence	switch fluorescence ratio
TAGGGTTTAA	1.01 ± 0.021
TAGGGTTTGG	0.992 ± 0.014
TAGGTAAATC	1.01 ± 0.024
TAGGTAAGAT	0.993 ± 0.015
TAGGTAGTTG	0.952 ± 0.051
TAGGTATTCA	0.9988 ± 0.0046
TAGGTCCAAT	1.01 ± 0.015
TAGGTCCGTT	0.988 ± 0.031
TAGGTCTGTG	0.987 ± 0.014
TAGGTGAGGG	1.11 ± 0.16
TAGGTGGAAA	0.992 ± 0.042
TAGGTGGGGC	0.996 ± 0.03
TAGGTGGTTG	1 ± 0.03
TAGGTTATTG	0.995 ± 0.024
TAGGTTCGAC	0.972 ± 0.031
TAGGTTGAAC	0.974 ± 0.05
TAGGTTGATG	0.981 ± 0.035
TAGGTTGTGG	0.994 ± 0.016
TAGGTTTGCA	1.02 ± 0.039
TAGTAAGTCA	0.976 ± 0.023
TAGTAATGGT	1.032 ± 0.0084
TAGTACGGAT	1.01 ± 0.007
TAGTACTAGA	1.03 ± 0.02
